Measured values as given in the supplement of paper PMC12764529.
± gives the half width of the 95% confidence interval.

Columns and labels:
[1] = folding stability dG unfold (combined trypsin and chymotrypsin); higher = more stable
Method in brief: (§1)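 Sequencing followed digestion of designed mini-proteins with trypsin and chymotrypsin, each at 11 concentrations in threefold dilutions together with a no-protease condition. The mini-proteins were under 80 residues, had no cysteine, sat in a PA-tagged cDNA display construct, and were kept only if AlphaFold2 dimer inter-PAE was above 15. From the counts, Bayesian fitting gave K50, and unfolding free energy was derived against a sequence-predicted unfolded-state K50 and a shared folded-state K50, per protease or combined.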

[2] = folding stability dG unfold from trypsin proteolysis; higher = more stable
Method in brief: as §1

[3] = folding stability dG unfold from chymotrypsin proteolysis; higher = more stable
Method in brief: as §1

Row | Sequence | folding stability dG unfold [1] | folding stability dG unfold [2] | folding stability dG unfold [3]
1 | SAYRIEIEIPSPKLAKKLEALLPPNYRIDNVRRNKNDNQVKITVEYDPGMPPSRMRRIHKEIKELIKELSAG [r14_306_TrROS] | 1.86 ± 0.18 kcal/mol | 1.24 ± 0.088 kcal/mol | 2.24 ± 0.077 kcal/mol
2 | SAYYIIIKIENPNDGKPFIIMIPGNNIHIFDPDNGKPVEIEVDGDKIEIKFNNRPVTVKPLEVIPPEAISAG [r14_208_TrROS] | 2.15 ± 0.23 kcal/mol | 1.54 ± 0.11 kcal/mol | 2.42 ± 0.04 kcal/mol
3 | SDDIKNMPFRITEIEPLPPGDPIPPGQRIRITIQMPDFPGQPFEFDIRVDPENGMIYMEMGGMPFEIPIKSA [r9_243_TrROS] | 1.67 ± 0.15 kcal/mol | 1.6 ± 0.019 kcal/mol | 1.6 ± 0.13 kcal/mol
4 | SDEGYKVEINPMIHRTDGKVTIMFMIQIKPGLDDLKIKIKLRLPDGKPMKVDYQRNPDNGFIMVSATMPPSA [r9_159_TrROS] | 3.53 ± 0.14 kcal/mol | 2.91 ± 0.1 kcal/mol | 4.21 ± 0.066 kcal/mol
5 | SDETVELPTVYTLYFGKDGTPRYYITVTLGDGPVAMELPEVSPDVKDGDVVPVKVPSSVVTSYSVSSAPASA [r9_769_JUSTAS] | 0.808 ± 0.059 kcal/mol | 0.671 ± 0.071 kcal/mol | 0.777 ± 0.096 kcal/mol
6 | SDKLAKLLEDELEKAGYEVVSVEVRYDPEKGLLYVNALVRRKDDPTWYRVRAVYNPETDELLEVKIEPLPSA [r9_814_TrMRF] | > 6 kcal/mol | 5.58 ± 0.21 kcal/mol | 6.29 ± 0.11 kcal/mol
7 | SDKVVIHFYPGMPVSNIVERVADNPDMTIEIVMPPGMKPSWYNYIRKALRDANIPKDQKVEIEWVPYDDMSA [r9_670_TrROS] | 3.59 ± 0.081 kcal/mol | 3.11 ± 0.12 kcal/mol | 3.92 ± 0.042 kcal/mol
8 | SEAEVEVEVLPGPDAVVVRVRLPGRDEVVELRVLDPHPGEGRVLVAVSPGDDDTVVVRDLSPEDIKALLASA [r9_1221_TrMRF] | 1.5 ± 0.056 kcal/mol | 1.843 ± 0.018 kcal/mol | 0.973 ± 0.055 kcal/mol
9 | SEAKTMSPEELKEFIEEYIEEERKKNPGKPVRIAIEDLKEKFPGFSPEELKKLLGLSEEELENGAIEIEPSA [r9_525_TrMRF] | 2.22 ± 0.24 kcal/mol | 1.81 ± 0.087 kcal/mol | 2.38 ± 0.11 kcal/mol
10 | SEEIIKALEEAGYEVESIEYDEETKTVTITIYRKNKETGKIEKKTITIEVEPGMTEEELLALARELLEKESA [r9_184_TrROS_Hall] | 4.83 ± 0.66 kcal/mol | 4.77 ± 0.93 kcal/mol | 4.71 ± 0.31 kcal/mol
11 | SEETLRILIRDPATGELREIEVRAGETVTVTFPDGSTVTLRITVVAAPPPPPKTVTLDPNETVEEGETVLSA [r9_467_TrROS_Hall] | 2.1 ± 0.092 kcal/mol | 2.24 ± 0.084 kcal/mol | 1.9 ± 0.038 kcal/mol
12 | SEEVEIEIRIRVEVDSLEEARALAEALEELGFEVEVKVVERDGKLVVEVTIRIRVPAPPPPPLSEEELKASA [r9_863_TrROS_Hall] | 2.17 ± 0.19 kcal/mol | 2.49 ± 0.11 kcal/mol | 1.55 ± 0.14 kcal/mol
13 | SEFELKIEEEEDPATGVLRVTVTFNTSLEDAKEKLKELLKESGLNAVIKSVEEKKVGPEVTITFEIEIPPSA [r9_164_JUSTAS] | 3.05 ± 0.057 kcal/mol | 2.71 ± 0.065 kcal/mol | 3.27 ± 0.052 kcal/mol
14 | SEKIKELIKKLAEELNLKIVKIEKKEDGKIIIEFENGIKIEIEIDPEKKNKIKIKIEKTKNGKLKITIEPSA [r9_809_TrROS_Hall] | 2.24 ± 0.12 kcal/mol | 1.67 ± 0.11 kcal/mol | 2.65 ± 0.14 kcal/mol
15 | SEKIVIEFPNPEEATVELIKSIIKPYLEPGEKVKIKVFSKDGKPLFEKELEFNEVEEVPKEKDYLIVIEKSA [r9_264_TrMRF] | 1.14 ± 0.21 kcal/mol | 0.97 ± 0.076 kcal/mol | 1.3 ± 0.1 kcal/mol
16 | SEKPLVTLELELVVETEEQARAAVEALLAALPEEEIVDIRVEVEEVDVFENGELVGRRRRVRVTIVVRRPSA [r9_605_TrROS_Hall] | 4.41 ± 0.25 kcal/mol | 4.31 ± 0.24 kcal/mol | 4.06 ± 0.26 kcal/mol
17 | SEKTVLSSSTSTSPTSITTTTTVKLPDGSLITTTTTYSSVTAAPTPAPGGTLVPTYSLPTTTTTTTLPPASA [r9_240_JUSTAS] | 0.63 ± 0.11 kcal/mol | 0.845 ± 0.025 kcal/mol | 0.309 ± 0.13 kcal/mol
18 | SEMSVEEILKKIAEELLKKNPNKEVTKEIEIEFEKPDPEGKRLLKEKVKATIKVTPDKIEILSESREILLSA [r9_361_JUSTAS] | 1.31 ± 0.18 kcal/mol | 1.52 ± 0.066 kcal/mol | 1.07 ± 0.054 kcal/mol
19 | SEPRYHVEIRLPVLLVVPPELLEPDPERDSYRLPEDDLPVHPDAVIPREVTFSGPMTAEEVVRRTLALLSSA [r9_165_TrMRF] | 1.04 ± 0.085 kcal/mol | 0.455 ± 0.11 kcal/mol | 1.38 ± 0.13 kcal/mol
20 | SEPWELVEERELPPNAVITFPNGEKLEIDPEKARVRVWRRPDSVRVLVVLKDGTVLEFEFYAPPRVTDDDSA [r9_348_TrMRF] | 2.69 ± 0.1 kcal/mol | 2.62 ± 0.074 kcal/mol | 2.58 ± 0.033 kcal/mol
21 | SERLKLKITIKNANGETYEVEIEFDLETNELTIKVKPVPALPPVTEKRVVKKDGKLVEETRTVLLSEEDLSA [r9_587_TrROS_Hall] | 1.74 ± 0.38 kcal/mol | 1.02 ± 0.16 kcal/mol | 1.83 ± 0.1 kcal/mol

Row | Sequence | folding stability dG unfold [1] | folding stability dG unfold [2] | folding stability dG unfold [3]
22 | SETETITVEVTMPAEELANMSAEELAARLREAFPDLKITSISITVEEVEDPETGERLVRVTVTITVERVPSA [r9_1189_TrROS_Hall] | 4.31 ± 0.15 kcal/mol | 4.28 ± 0.11 kcal/mol | 3.4 ± 0.068 kcal/mol
23 | SETITLEIELPDGSKLTIEIPVEKIPGVDEYVVTVKITEYLPNGKPRSREFTFLAKSPEEAVEIALLAAGSA [r9_337_TrMRF] | 5.57 ± 0.21 kcal/mol | 4.7 ± 0.24 kcal/mol | 5.57 ± 0.16 kcal/mol
24 | SETYKVTVLAEVRIYSRSPDGTWKPIGVFPVEATVEYPAEYREEAERKAVEKVEEEVRKFAESHGVVVEASA [r9_356_TrMRF] | 1.91 ± 0.16 kcal/mol | 1.57 ± 0.043 kcal/mol | 2.31 ± 0.13 kcal/mol
25 | SEVKLEVEEEEDGTLRVRLEVKLTREDGREVTRELELELTIELPPVEFETEEERRAALERLLEELEKLLESA [r9_790_TrROS_Hall] | 3.52 ± 0.13 kcal/mol | 3.18 ± 0.075 kcal/mol | 3.89 ± 0.18 kcal/mol
26 | SEYSRIEFEDYTVLVVKKTLPNGKPLYLVRLYRKEDPKVDPVEVDSPEEAEEAVKELLKKHLPGEEVEKESA [r9_749_TrMRF] | 3.08 ± 0.15 kcal/mol | 2.3 ± 0.11 kcal/mol | 3.3 ± 0.033 kcal/mol
27 | SFEIEILDVDPDGWIVITIRYPSPDGKPLTPEEMEEIAEEIALELFPQFPDFKVTIEHDPESGTITIVIRSA [r9_485_TrROS] | 4.15 ± 0.43 kcal/mol | 4.25 ± 0.35 kcal/mol | 3.59 ± 0.3 kcal/mol
28 | SFRIMASYDPDYGTITVYVQFQDPDNGEPIPAEEIAKEIAEQFPGAKIDDIEPNPDGWFKIEIKVPPGAFSA [r9_87_TrROS] | 2.46 ± 0.19 kcal/mol | 2.19 ± 0.077 kcal/mol | 2.55 ± 0.044 kcal/mol
29 | SGEFKPIATIDAKDGKPEAIIDSVKELLPDSGPVLVVLDLPDGPPKVNVIDPSTGKVREFVPGGNITIVPSA [r9_853_TrMRF] | 1.03 ± 0.056 kcal/mol | 0.355 ± 0.037 kcal/mol | 1.39 ± 0.021 kcal/mol
30 | SGEIIGEQTFPVEDGGKVPVKIYKNPGNLYAEVFNDDDKPIQEQEIPPDDDLEDIENIKLPPGAWVRIYWSA [r9_215_TrROS] | 0.433 ± 0.3 kcal/mol | 0.205 ± 0.14 kcal/mol | 0.368 ± 0.39 kcal/mol
31 | SGISNEEIKKILEEIAKEYPGLKIEIKPGTEPSVAKGPKAVVTLTRKPGYLEITITFPETGETTTIPIPPSA [r9_1062_JUSTAS] | 2.64 ± 0.043 kcal/mol | 2.51 ± 0.072 kcal/mol | 2.721 ± 0.02 kcal/mol
32 | SGKVKVKVEIPIPFRPPDGKWMMMNIWVEAEVPVTPEDLNNGKPRIRPEALDEAKDKVREWMRDIFGEPISA [r9_629_TrROS] | 1.45 ± 0.13 kcal/mol | 1.03 ± 0.052 kcal/mol | 1.74 ± 0.11 kcal/mol
33 | SGLAPGEVVPEKFEREITDPETGKKYKVEVTTEIAPENPVRRVTVTTTPPDGTTTTTEEVIPPGEEYTLESA [r9_88_JUSTAS] | 0.468 ± 0.077 kcal/mol | -0.889 ± 0.27 kcal/mol | 0.867 ± 0.092 kcal/mol
34 | SGLLEKFLKEAEEWIKKLGLKVKPGEKVEIPIPFENNLIAKIEFYPGEKIIKVVLIGENKPVEYKFKIEKSA [r9_426_TrMRF] | 1.88 ± 0.45 kcal/mol | 1.53 ± 0.16 kcal/mol | 2.32 ± 0.17 kcal/mol
35 | SGLVEAIAKALGAESVTPHPDGTFSLRLKDGSYLKIKVEVLEVRERPDGSPEFIVKIEIEVFEGGKPEDESA [r9_648_TrMRF] | > 6 kcal/mol | 4.56 ± 0.14 kcal/mol | 5.94 ± 0.065 kcal/mol
36 | SGMIDVDLDYTTEDGRPVKVSASYDPATGVLTFKVPDNDDVIIATVTEVTTEDESVTVTLNVTRYSKELLSA [r9_587_JUSTAS] | 2.09 ± 0.14 kcal/mol | 0.957 ± 0.072 kcal/mol | 2.54 ± 0.066 kcal/mol
37 | SGMMRTIVLKIPIEEARKLLGDPNKPVSEEELKALVEKLAKEKGLDVEEIKVEKLPDGTYVVTVLVPDLGSA [r9_52_JUSTAS] | 3.81 ± 0.099 kcal/mol | 3.06 ± 0.12 kcal/mol | 4.12 ± 0.076 kcal/mol
38 | SGMPPVSFANLELVAVSPDGTVTVVRAELTGPDGERYVWTGSLSELLKRLEEEDLTLDNFKEGGLIVAVDSA [r9_1078_TrMRF] | 3.44 ± 0.041 kcal/mol | 2.77 ± 0.06 kcal/mol | 3.75 ± 0.039 kcal/mol
39 | SGMSMAKDAKPIYIEYRDPNGKSYRVTEVKVNEDGTLTITIEYPDSIKTYTLPPNANYPLSSSLILSTVESA [r9_993_JUSTAS] | 1.45 ± 0.14 kcal/mol | 1.4 ± 0.076 kcal/mol | 1.43 ± 0.13 kcal/mol
40 | SGMVEVKVTVPPGPATLTATPSDGSTYSKSIPANSEVTFTFPVPASLPSSTTITFTLTFPDTGTTTTTSVSA [r9_275_JUSTAS] | 1.28 ± 0.26 kcal/mol | 1.28 ± 0.051 kcal/mol | 1.26 ± 0.25 kcal/mol
41 | SGPALEILRAASEEEGVPVLAEVVPDADGNPVIPAVVWSPEDIEAGELPGEVKEAPITVDGKTYRVVLFASA [r9_489_TrMRF] | -0.0573 ± 0.086 kcal/mol | -0.224 ± 0.11 kcal/mol | -0.0942 ± 0.18 kcal/mol
42 | SGPFQFFVKIEYKGKNGKTQERELPINMPPGDFDKFIEEILDDPNLEGADDVEIDVYMAGTGRPQEIEIPSA [r9_97_TrROS] | 1.07 ± 0.092 kcal/mol | 0.678 ± 0.061 kcal/mol | 1.22 ± 0.11 kcal/mol
